Assay results as given in patent US20100260668A1 (published 2010).

B1: DVD518 (bispecific antibody, human IgG1, kappa, lambda)
heavy: not shown
light: DIQMTQSPSSLSASVGDRVTITCSASQDISNYLNWYQQKPGKAPKVLIYFTSSLHSGVPSRFSGSGSGTDFTLTISSLQPEDFATYYCQQYSTVPWTFGQGTKVEIKRTVAAPSVFIFPPQAVVTQESALTTSPGETVTLTCRSSTGAVTTSNYANWVQEKPDHLFTGLIGGTNNRAPGVPARFSGSLIGDKAALTITGAQTEDEAIYFCALWYSNHWVFGGGTKLTVLGQPKAAPSVTLFPPSSEELQANKATLVCLISDFYPGAVTVAWKADSSPVKAGVETTTPSKQSNNKYAASSYLSLTPEQWKSHRSYSCQVTHEGSTVEKTVAPTECS
notes: DVD-Ig; HC long, LC long linker; also called DVD518H; DVD518L
B2: DVD470 (bispecific antibody, human IgG1, kappa)
heavy: not shown
light: DIQMTQSPSSLSASVGDRVTITCSASQDISNYLNWYQQKPGKAPKVLIYFTSSLHSGVPSRFSGSGSGTDFTLTISSLQPEDFATYYCQQYSTVPWTFGQGTKVEIKRTVAAPSVFIFPPDIQMTQSPSSLSASVGDRVTITCRASQDVSTAVAWYQQKPGKAPKLLIYSASFLYSGVPSRFSGSGSGTDFTLTISSLQPEDFATTYYCQQSYTGTVTFGQGTKVEIKRTVAAPSVFIFPPSDEQLKSGTASVVCLLNNFYPREAKVQWKVDNALQSGNSQESVTEQDSKDSTYSLSSTLTLSKADYEKHKVYACEVTHQGLSSPVTKSFNRGEC
notes: DVD-Ig; HC long, LC long linker; also called DVD470H; DVD470L
B3: DVD494 (bispecific antibody, human IgG1, kappa)
heavy: not shown
light: DIQMTQSPSSLSASVGDRVTITCSASQDISNYLNWYQQKPGKAPKVLIYFTSSLHSGVPSRFSGSGSGTDFTLTISSLQPEDFATYYCQQYSTVPWTFGQGTKVEIKRTVAAPSVFIFPPDIQMTQSSSYLSVSLGGRVTITCKASDHINNWLAWYQQKPGNAPRLLISGATSLETGVPSRFSGSGSGKDYTLSITSLQTEDVATYYCQQYWSIPLTFGAGTKLELKRTVAAPSVFIFPPSDEQLKSGTASVVCLLNNFYPREAKVQWKVDNALQSGNSQESVTEQDSKDSTYSLSSTLTLSKADYEKHKVYACEVTHQGLSSPVTKSFNRGEC
notes: DVD-Ig; HC long, LC long linker; also called DVD494H; DVD494L
B4: DVD522 (bispecific antibody, human IgG1, kappa, lambda, L234A L235A)
heavy: not shown
light: DIQMTQSPSSLSASVGDRVTITCRASQVIRRSLAWYQQKPGKAPKLLIYAASNLASGVPSRFSGSGSGTDFTLTISSLQPEDFATYYCQQSNTSPLTFGQGTKVEIKRTVAAPSVFIFPPQAVVTQESALTTSPGETVTLTCRSSTGAVTTSNYANWVQEKPDHLFTGLIGGTNNRAPGVPARFSGSLIGDKAALTITGAQTEDEAIYFCALWYSNHWVFGGGTKLTVLGQPKAAPSVTLFPPSSEELQANKATLVCLISDFYPGAVTVAWKADSSPVKAGVETTTPSKQSNNKYAASSYLSLTPEQWKSHRSYSCQVTHEGSTVEKTVAPTECS
notes: DVD-Ig; outer AB071 (VEGF), inner AB073 (DLL4); HC long, LC long linker; also called DVD522H; DVD522L
B5: DVD474 (bispecific antibody, human IgG1, kappa)
heavy: not shown
light: DIQMTQSPSSLSASVGDRVTITCRASQVIRRSLAWYQQKPGKAPKLLIYAASNLASGVPSRFSGSGSGTDFTLTISSLQPEDFATYYCQQSNTSPLTFGQGTKVEIKRTVAAPSVFIFPPDIQMTQSPSSLSASVGDRVTITCRASQDVSTAVAWYQQKPGKAPKLLIYSASFLYSGVPSRFSGSGSGTDFTLTISSLQPEDFATTYYCQQSYTGTVTFGQGTKVEIKRTVAAPSVFIFPPSDEQLKSGTASVVCLLNNFYPREAKVQWKVDNALQSGNSQESVTEQDSKDSTYSLSSTLTLSKADYEKHKVYACEVTHQGLSSPVTKSFNRGEC
notes: DVD-Ig; outer AB071 (VEGF), inner AB015 (DLL4); HC long, LC long linker; also called DVD474H; DVD474L
B6: DVD452 (bispecific antibody, human IgG1, kappa, L234A L235A)
heavy: not shown
light: DIQMTQSPSSLSASVGDRVTITCRASQVIRRSLAWYQQKPGKAPKLLIYAASNLASGVPSRFSGSGSGTDFTLTISSLQPEDFATYYCQQSNTSPLTFGQGTKVEIKRTVAAPSVFIFPPDIVMTQSPDSLAVSLGERATISCRASESVDNYGISFMKWFQQKPGQPPKLLIYAASNQGSGVPDRFSGSGSGTDFTLTISSLQAEDVAVYYCQQSKEVPWTFGGGTKVEIKRTVAAPSVFIFPPSDEQLKSGTASVVCLLNNFYPREAKVQWKVDNALQSGNSQESVTEQDSKDSTYSLSSTLTLSKADYEKHKVYACEVTHQGLSSPVTKSFNRGEC
notes: DVD-Ig; outer AB071 (VEGF), inner AB069 (DLL4); HC long, LC long linker; also called DVD452H; DVD452L
B7: DVD498 (bispecific antibody, human IgG1, kappa)
heavy: not shown
light: DIQMTQSPSSLSASVGDRVTITCRASQVIRRSLAWYQQKPGKAPKLLIYAASNLASGVPSRFSGSGSGTDFTLTISSLQPEDFATYYCQQSNTSPLTFGQGTKVEIKRTVAAPSVFIFPPDIQMTQSSSYLSVSLGGRVTITCKASDHINNWLAWYQQKPGNAPRLLISGATSLETGVPSRFSGSGSGKDYTLSITSLQTEDVATYYCQQYWSIPLTFGAGTKLELKRTVAAPSVFIFPPSDEQLKSGTASVVCLLNNFYPREAKVQWKVDNALQSGNSQESVTEQDSKDSTYSLSSTLTLSKADYEKHKVYACEVTHQGLSSPVTKSFNRGEC
notes: DVD-Ig; outer AB071 (VEGF), inner AB072 (DLL4); HC long, LC long linker; also called DVD498H; DVD498L
B8: DVD504 (bispecific antibody, human IgG1, kappa)
heavy: not shown
light: DIQMTQSPSSLSASVGDRVTITCRASQVIRRSLAWYQQKPGKAPKLLIYAASNLASGVPSRFSGSGSGTDFTLTISSLQPEDFATYYCQQSNTSPLTFGQGTKVEIKRTVAAPDIQMTQSSSYLSVSLGGRVTITCKASDHINNWLAWYQQKPGNAPRLLISGATSLETGVPSRFSGSGSGKDYTLSITSLQTEDVATYYCQQYWSIPLTFGAGTKLELKRTVAAPSVFIFPPSDEQLKSGTASVVCLLNNFYPREAKVQWKVDNALQSGNSQESVTEQDSKDSTYSLSSTLTLSKADYEKHKVYACEVTHQGLSSPVTKSFNRGEC
notes: DVD-Ig; outer AB071 (VEGF), inner AB072 (DLL4); HC long, LC short linker; also called DVD504H; DVD504L
B9: DVD476 (bispecific antibody, human IgG1, kappa)
heavy: not shown
light: DIQMTQSPSSLSASVGDRVTITCSASQDISNYLNWYQQKPGKAPKVLIYFTSSLHSGVPSRFSGSGSGTDFTLTISSLQPEDFATYYCQQYSTVPWTFGQGTKVEIKRTVAAPDIQMTQSPSSLSASVGDRVTITCRASQDVSTAVAWYQQKPGKAPKLLIYSASFLYSGVPSRFSGSGSGTDFTLTISSLQPEDFATTYYCQQSYTGTVTFGQGTKVEIKRTVAAPSVFIFPPSDEQLKSGTASVVCLLNNFYPREAKVQWKVDNALQSGNSQESVTEQDSKDSTYSLSSTLTLSKADYEKHKVYACEVTHQGLSSPVTKSFNRGEC
notes: DVD-Ig; HC long, LC short linker; also called DVD476H; DVD476L
B10: DVD528 (bispecific antibody, human IgG1, lambda)
heavy: not shown
light: DIQMTQSPSSLSASVGDRVTITCRASQVIRRSLAWYQQKPGKAPKLLIYAASNLASGVPSRFSGSGSGTDFTLTISSLQPEDFATYYCQQSNTSPLTFGQGTKVEIKRTVAAPQAVVTQESALTTSPGETVTLTCRSSTGAVTTSNYANWVQEKPDHLFTGLIGGTNNRAPGVPARFSGSLIGDKAALTITGAQTEDEAIYFCALWYSNHWVFGGGTKLTVLGQPKAAPSVTLFPPSSEELQANKATLVCLISDFYPGAVTVAWKADSSPVKAGVETTTPSKQSNNKYAASSYLSLTPEQWKSHRSYSCQVTHEGSTVEKTVAPTECS
notes: DVD-Ig; outer AB071 (VEGF), inner AB073 (DLL4); HC long, LC short linker; also called DVD528H; DVD528L
B11: DVD458 (bispecific antibody, human IgG1, kappa, L234A L235A)
heavy: not shown
light: DIQMTQSPSSLSASVGDRVTITCRASQVIRRSLAWYQQKPGKAPKLLIYAASNLASGVPSRFSGSGSGTDFTLTISSLQPEDFATYYCQQSNTSPLTFGQGTKVEIKRTVAAPDIVMTQSPDSLAVSLGERATISCRASESVDNYGISFMKWFQQKPGQPPKLLIYAASNQGSGVPDRFSGSGSGTDFTLTISSLQAEDVAVYYCQQSKEVPWTFGGGTKVEIKRTVAAPSVFIFPPSDEQLKSGTASVVCLLNNFYPREAKVQWKVDNALQSGNSQESVTEQDSKDSTYSLSSTLTLSKADYEKHKVYACEVTHQGLSSPVTKSFNRGEC
notes: DVD-Ig; outer AB071 (VEGF), inner AB069 (DLL4); HC long, LC short linker; also called DVD458H; DVD458L
B12: DVD524 (bispecific antibody, human IgG1, lambda)
heavy: not shown
light: DIQMTQSPSSLSASVGDRVTITCSASQDISNYLNWYQQKPGKAPKVLIYFTSSLHSGVPSRFSGSGSGTDFTLTISSLQPEDFATYYCQQYSTVPWTFGQGTKVEIKRTVAAPQAVVTQESALTTSPGETVTLTCRSSTGAVTTSNYANWVQEKPDHLFTGLIGGTNNRAPGVPARFSGSLIGDKAALTITGAQTEDEAIYFCALWYSNHWVFGGGTKLTVLGQPKAAPSVTLFPPSSEELQANKATLVCLISDFYPGAVTVAWKADSSPVKAGVETTTPSKQSNNKYAASSYLSLTPEQWKSHRSYSCQVTHEGSTVEKTVAPTECS
notes: DVD-Ig; HC long, LC short linker; also called DVD524H; DVD524L
B13: DVD480 (bispecific antibody, human IgG1, kappa)
heavy: not shown
light: DIQMTQSPSSLSASVGDRVTITCRASQVIRRSLAWYQQKPGKAPKLLIYAASNLASGVPSRFSGSGSGTDFTLTISSLQPEDFATYYCQQSNTSPLTFGQGTKVEIKRTVAAPDIQMTQSPSSLSASVGDRVTITCRASQDVSTAVAWYQQKPGKAPKLLIYSASFLYSGVPSRFSGSGSGTDFTLTISSLQPEDFATTYYCQQSYTGTVTFGQGTKVEIKRTVAAPSVFIFPPSDEQLKSGTASVVCLLNNFYPREAKVQWKVDNALQSGNSQESVTEQDSKDSTYSLSSTLTLSKADYEKHKVYACEVTHQGLSSPVTKSFNRGEC
notes: DVD-Ig; outer AB071 (VEGF), inner AB015 (DLL4); HC long, LC short linker; also called DVD480H; DVD480L
B14: DVD500 (bispecific antibody, human IgG1, kappa)
heavy: not shown
light: DIQMTQSPSSLSASVGDRVTITCSASQDISNYLNWYQQKPGKAPKVLIYFTSSLHSGVPSRFSGSGSGTDFTLTISSLQPEDFATYYCQQYSTVPWTFGQGTKVEIKRTVAAPDIQMTQSSSYLSVSLGGRVTITCKASDHINNWLAWYQQKPGNAPRLLISGATSLETGVPSRFSGSGSGKDYTLSITSLQTEDVATYYCQQYWSIPLTFGAGTKLELKRTVAAPSVFIFPPSDEQLKSGTASVVCLLNNFYPREAKVQWKVDNALQSGNSQESVTEQDSKDSTYSLSSTLTLSKADYEKHKVYACEVTHQGLSSPVTKSFNRGEC
notes: DVD-Ig; HC long, LC short linker; also called DVD500H; DVD500L
B15: DVD485 (DLL4 (seq. 1) N-terminal / VEGF (AB071) C-terminal DVD-Ig, short HC linker, long LC linker) (bispecific antibody, human IgG1, kappa)
heavy: not shown
light: DIQMTQSPSSLSASVGDRVTITCRASQDVSTAVAWYQQKPGKAPKLLIYSASFLYSGVPSRFSGSGSGTDFTLTISSLQPEDFATTYYCQQSYTGTVTFGQGTKVEIKRTVAAPSVFIFPPDIQMTQSPSSLSASVGDRVTITCRASQVIRRSLAWYQQKPGKAPKLLIYAASNLASGVPSRFSGSGSGTDFTLTISSLQPEDFATYYCQQSNTSPLTFGQGTKVEIKRTVAAPSVFIFPPSDEQLKSGTASVVCLLNNFYPREAKVQWKVDNALQSGNSQESVTEQDSKDSTYSLSSTLTLSKADYEKHKVYACEVTHQGLSSPVTKSFNRGEC
notes: also called DVD485H/DVD485L

molecular target: T1, DLL4 ECD/His tag (R&D 1506-D4-050) (UniProt Q9NR61 27-529); experiment: direct bind ELISA, DLL4 on plate; DLL4 VD C-term.; HC Long, LC Long
T1 construct: extracellular domain; Bought antigen coated on the ELISA plate; not shown: His tag

Binder	EC50 [nM]
B1	5.9
B2	0.19
B3	39.5
B4	0.48
B5	0.57
B6	0.34
B7	0.45

molecular target: T1, DLL4 ECD/His tag (R&D 1506-D4-050); experiment: direct bind ELISA, DLL4 on plate; DLL4 VD C-term.; HC Long, LC Short

Binder	EC50 [nM]
B8	0.53
B9	0.3
B10	0.81
B11	1.54
B12	0.22
B13	0.6
B14	0.57

molecular target: T2, human DLL4 extracellular domain (human, UniProt Q9NR61 27-529, biotin label in the Notch-1 competition ELISA (sites not given)); experiment: competition ELISA: 14 nM biotin-labelled human DLL4 ECD pre-mixed with DVD-Ig, then on coated human Notch-1 (competitor Notch-1)
T2 construct: extracellular domain; also called biotin labeled human DLL4 extracellular domain

Binder	IC50 [nM]
B15	3.44

molecular target: T2, human DLL4 extracellular domain; experiment: cell-based or functional assay

Binder	DVD-Ig Inhibition of sFlt1 (IC50, nM) [nM]
B15	6.67

molecular target: T3, human DLL4 on 293G-human DLL4 cells (human, UniProt Q9NR61 27-685); experiment: FACS: inhibition of Notch1 binding to 293G-human DLL4 cells (competitor Notch1)
T3 construct: whole, on cells; no method paragraph describes this FACS assay

Binder	IC50 [nM]
B15	6.3
